Measurements published in paper PMC11772769, “Selective cargo and membrane recognition by SNX17 regulates its interaction with Retriever” (EMBO Reports, 2024).

Target: Peptide SNX17_(CT-18) (UniProt Q15036)
Assay: fluorescence polarisation

**Q.** “VPS26C-VPS35L_(110-598) complex (from UniProt O14972 1-297; Q7Z3J2 110-598)” was tested. Which Kd did it give?
**A.** 5.3 µM
